# Where two headings read alike, the source gives them in different places.
# B1: sasD promoter EMSA probe (dsDNA)
# DNA 1: CTTTTGTAATCGTATGATAATGTAAATGTAATCAAATTGTAATATAAGGGGACAAGACAATGAAAAAATT
# DNA 2: AATTTTTTCATTGTCTTGTCCCCTTATATTACAATTTGATTACATTTACATTATCATACGATTACAAAAG
# B2: ssaA promoter EMSA probe (dsDNA)
# DNA 1: AAAACTGAATGTTTCGAAAATAAGTCTGTTACAAATTTGTAATATTACTGAAAATTCTAAATGTATATTT
# DNA 2: AAATATACATTTAGAATTTTCAGTAATATTACAAATTTGTAACAGACTTATTTTCGAAACATTCAGTTTT
# B3: ltaS promoter EMSA probe (VraR site) (dsDNA)
# DNA 1: CATTAGGAGGAAATTATTTGCATCGGACTCGAGTATGAGCTACGTACCAAATATTATTTCATCATTTCTA
# DNA 2: TAGAAATGATGAAATAATATTTGGTACGTAGCTCATACTCGAGTCCGATGCAAATAATTTCCTCCTAATG
# B4: WalR_(T101A)-SmBIT (natural protein, Staphylococcus aureus, UniProt Q2FKN8 1-233, looked up)
# chain: MARKVVVVDDEKPIADILEFNLKKEGYDVYCAYDGNDAVDLIYEEEPDIVLLDIMLPGRDGMEVCREVRKKYEMPIIMLTAKDSEIDKVLGLELGADDYVAKPFSTRELIARVKANLRRHYSQPAQDTGNVTNEITIKDIVIYPDAYSIKKRGEDIELTHREFELFHYLSKHMGQVMTREHLLQTVWGYDYFGDVRTVDVTIRRLREKIEDDPSHPEYIVTRRGVGYFLQQHE
# B5: isaA promoter EMSA probe (dsDNA)
# DNA 1: AAATAACACTTGATATTGTAATGTTTTGTAAAGAAAGTGTAATTTACTGGCTGGTTTTTTGTGATATAGT
# DNA 2: ACTATATCACAAAAAACCAGCCAGTAAATTACACTTTCTTTACAAAACATTACAATATCAAGTGTTATTT
# B6: sle1 promoter EMSA probe (dsDNA)
# DNA 1: TTTGATGATACAGTATATGATTTTTTTGTAATCATAATGTCATCAAACATCAACCTATTATACATAATAA
# DNA 2: TTATTATGTATAATAGGTTGATGTTTGATGACATTATGATTACAAAAAAATCATATACTGTATCATCAAA
# B7: SAUSA300_0602 promoter EMSA probe (dsDNA)
# DNA 1: GAAATATAAAAGTAGTAATTATTATTTGTAATATAATTGTAATATGACTGTTGTTTTAGAAATGATTGTT
# DNA 2: AACAATCATTTCTAAAACAACAGTCATATTACAATTATATTACAAATAATAATTACTACTTTTATATTTC
# B8: ltaS promoter EMSA probe (WalR site) (dsDNA)
# DNA 1: ATATTTATTAATTGAGCTATGCTTATTATTACAATTTGATTACAAATTTTAAATTTGTTAATTGAATGAT
# DNA 2: ATCATTCAATTAACAAATTTAAAATTTGTAATCAAATTGTAATAATAAGCATAGCTCAATTAATAAATAT
# Experiments:
# WalR [1] = target: T1, WalR (Staphylococcus aureus, UniProt Q2FKN8 1-233); assay: EMSA
# WalR [2] = target: T1, WalR; assay: EMSA; remark: listed apart in the source
# VraR [3] = target: T2, VraR (Staphylococcus aureus, UniProt Q2FX09 1-209); assay: EMSA
# T2 sequence: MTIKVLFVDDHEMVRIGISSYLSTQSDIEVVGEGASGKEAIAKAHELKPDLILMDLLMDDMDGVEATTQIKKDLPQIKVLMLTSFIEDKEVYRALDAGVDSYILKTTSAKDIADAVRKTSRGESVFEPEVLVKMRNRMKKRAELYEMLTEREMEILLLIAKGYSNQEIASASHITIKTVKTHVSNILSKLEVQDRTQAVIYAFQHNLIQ
# WalR [4] = target: T1, WalR; assay: EMSA; remark: listed apart in the source
# [5] = target: T3, WalK-LgBIT (native WalK, sensor histidine kinase) (Staphylococcus aureus, UniProt Q2FKN7 1-608); assay: split reporter
# T3 sequence (looked up): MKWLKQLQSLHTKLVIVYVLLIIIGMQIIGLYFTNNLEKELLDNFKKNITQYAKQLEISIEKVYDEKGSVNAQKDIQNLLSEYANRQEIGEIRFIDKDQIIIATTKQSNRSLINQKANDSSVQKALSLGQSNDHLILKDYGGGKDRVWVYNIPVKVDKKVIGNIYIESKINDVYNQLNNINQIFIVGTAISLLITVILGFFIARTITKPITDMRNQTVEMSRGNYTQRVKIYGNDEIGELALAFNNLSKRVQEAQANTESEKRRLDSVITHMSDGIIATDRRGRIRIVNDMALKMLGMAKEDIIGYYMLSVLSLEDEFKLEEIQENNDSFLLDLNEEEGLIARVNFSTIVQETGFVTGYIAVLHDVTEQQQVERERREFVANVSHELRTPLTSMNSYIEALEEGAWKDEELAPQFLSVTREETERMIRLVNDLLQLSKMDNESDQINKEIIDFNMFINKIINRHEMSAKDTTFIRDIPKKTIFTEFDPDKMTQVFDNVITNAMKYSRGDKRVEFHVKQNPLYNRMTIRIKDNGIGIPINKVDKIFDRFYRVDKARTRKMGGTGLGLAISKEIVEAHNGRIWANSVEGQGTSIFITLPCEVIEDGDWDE
# VraR [6] = target: T2, VraR; assay: EMSA; remark: listed apart in the source
# T1 sequence (Q2FKN8 whole entry): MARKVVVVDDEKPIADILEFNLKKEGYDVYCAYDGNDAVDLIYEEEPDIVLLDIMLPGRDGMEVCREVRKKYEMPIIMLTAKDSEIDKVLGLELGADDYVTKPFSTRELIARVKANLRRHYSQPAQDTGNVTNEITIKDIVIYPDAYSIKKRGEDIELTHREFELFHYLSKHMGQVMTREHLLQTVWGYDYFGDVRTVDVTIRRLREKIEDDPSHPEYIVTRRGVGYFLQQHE
Binder,binding result (WalR [1]),further results
B1,binds,–
B2,–,binding result (WalR [2]): binds
B3,–,binding result (VraR [3]): binds; binding result (WalR [4]): no binding
B4,–,fold change of the maximal level of interaction against native WalK/WalR [5]: 1.5 fold
B5,binds,–
B6,binds,–
B7,binds,–
B8,binds,binding result (VraR [6]): binds

# — publication doi:10.1101/2023.02.27.530350 (bioRxiv, 2023)
